Experiments:
[1] = Glucagon stability assessment (solubility, circular dichroism); format: physicochemical
Experimental: Human recombinant glucagon (Sigma) was dissolved at 4 mg/ml in PBS containing 1 mM HCl. This was mixed 1:1 with 1 equivalent of CB[7]-PEG10k in PBS, or in PBS alone, for a final glucagon concentration of 2 mg/ml. Vials were left to age at room temperature for various times. Circular dichroism was performed on samples without dilution, as well as on freshly dissolved glucagon, by utilizing a […] cuvette.

[2] = general statement, glucagon alone; cited from earlier work
native insulin = native insulin (Homo sapiens, UniProt P01308); assay: Acridine orange competitive binding assay; conditions: AO 8 μM, CB[7] or PEG-T-CB[7] 6 μM, insulin 0-15 μM, in water; one-site competitive binding model; read-out: KD (binding constant toward insulin)
Experimental: To confirm binding of PEG-T-CB[7] to native insulin, a competitive binding assay was performed using acridine orange (AO) (FIG. 2D). In this assay, the fluorescent emission spectrum of AO is collected. The fluorescence intensity of AO increases when in complex with CB[7] relative to its emission when free in solution. As insulin is added, the CB[7]*AO complex dissociates as a result of stronger binding affinity of the B1 Phenylalanine residue to the CB[7], resulting in a reduction to the measured fluorescence intensity of AO.
Binding of PEG-T-CB[7] conjugates to insulin was assessed using the acridine orange dye displacement assay, in accordance with a previously described protocol. See, e.g., Chinai et al. Journal of the American Chemical Society 2011, 133(23): 8810-8813 Briefly, 6 μM of either unmodified CB[7] or the PEG-T-CB[7] conjugates and 8 μM acridine orange were combined with recombinant insulin (0, 1, 2, 4, 6, 8, 10, 12.5, 15 μM) in H2O. Samples were incubated overnight in light-free conditions and fluorescent spectra were collected on an Infinite® M1000 plate reader (Tecan Group, Ltd.), exciting at 485 nm and collecting the resulting fluorescent spectra from 495-650 nm. […]

[3] = reported previously (Shaikh et al. 2008); used for fitting; cited from earlier work
[4] = test system: STZ-induced diabetic mice; assay: In vivo blood glucose in STZ diabetic mice; set-up: species or system mouse; conditions: insulin 1 IU/kg s.c., alone or with 5 molar equivalents host; normoglycemia <200 mg/dL; 6-hour study
Experimental: A mouse model of insulin-deficient diabetes, prepared using streptozotocin to induce pancreatic ß-cell death, was used to evaluate the function of PEG-T-CB[7] conjugates in vivo (FIG. 4A). Following the onset of diabetes, mice were fasted overnight to ensure an average starting blood glucose level of approximately 450 mg/dL. See, e.g., Like et al. Science 1976, 193(4251): 415-417. Insulin was then administered subcutaneously at a dose of 1 IU/kg in a saline vehicle. Alternatively, an identical dose of insulin was administered along with CB [7], PEG5k-T-CB[7], PEG10k-T-CB [7], or PEG30k-T-CB [7]. All insulin formulations reduced average blood glucose to a normoglycemic level (<200 mg/dL for a mouse) following a single subcutaneous administration. Animals that received either native insulin or insulin formulated with unmodified CB[7] became hyperglycemic again approximately 2 hours following administration. […]
Male C57BL/6J, age 8 weeks, were purchased the Jackson Laboratory. […] Mice were allowed to eat ad libitum and glucose levels were monitored by peripheral tail vein bleeds using a portable glucose meter (Accu-Chek Aviva, Roche) daily until unfasted glucose levels >400 mg/dL. […] Blood glucose readings were collected every 30 minutes using a handheld glucose meter for 6 hours following insulin injection.

[5] = Insulin aggregation assay (transmittance at 540 nm); format: physicochemical; conditions: insulin 1 mg/mL, pH 7.4, 37° C., continuous agitation
Experimental: Insulin is well known to form fibrillar aggregates in physiologic conditions. To determine whether PEG-T-CB[7] can stabilize insulin and prevent its aggregation, assays were performed in physiologic salt concentrations at pH 7.4 and 37° C. with continuous agitation to determine the kinetics of insulin aggregation in a solution of 1 mg/mL protein (FIG. 3A). Specifically, transmittance was measured at 540 nm, a wavelength where both insulin and the PEG-T-CB[7] have negligible absorbance in order to detect the formation of aggregates, which scatter light, in solution over time. […] After the initial 100 h study, data were collected once daily to determine the duration of stability for each PEG-T-CB[7]/insulin formulation (FIG. 3B).
Recombinant human insulin was dissolved at 4 mg/ml in 2 mM HCl with 150 mM NaCl. […] The plate was immediately placed into an Infinite® M1000 plate reader (Tecan Group, Ltd.) and shaken continuously at 37° C. Absorbance readings at 540 nm were collected every 6 minutes for 100 hours, and absorbance values were subsequently converted to transmittance. […] Following the 100-hour kinetic study, the plate was maintained under continuous agitation at 37° C. and absorbance at 540 nm was monitored daily to approximate tA for the PEG-T-CB[7] conjugates.

For “Glucagon: Human recombinant glucagon (Sigma)”, the “glucagon conformation by circular dichroism after aging” value ([1]; aged for 24 hours at room temperature, 2 mg/ml) is listed as “no appreciable glucagon in solution”, the “glucagon solubility when dissolved alone” value ([1]; glucagon 2 mg/ml in PBS alone) is listed as “readily precipitates from solution” and the “typical duration of aqueous solubility of glucagon” value [2] is listed as “less than one hour”.

For cucurbit[7]uril [CB[7]], the Kd (native insulin) is given as 2300 ± 200 nM and the “CB[7]•AO equilibrium constant Keq” value [3] is given as 200000 M⁻¹.

In the case of “native insulin: Recombinant human insulin, unmodified; aged or fresh as stated”, the “duration of normoglycemia following administration (time until hyperglycemic again)” value [4] is reported as “approximately 2 hours”, the “aggregation time (tA), time after which a 10% reduction in transmittance is observed” value ([5]; alone or with 1 equivalent host, physiologic salt) is reported as 13.6 ± 0.2 h and the “insulin aggregation in 100 hours of kinetic study” value ([5]; 100 h) is reported as “Rapid aggregation”.

Reference: US11191841B2, “Supramolecular modification of proteins” (Massachusetts Institute of Technology, priority 2015, dated 2021)
